The target of series [1] is T1, secretory phospholipase A2 (sPLA2) (Homo sapiens, UniProt P14555 P14555:21-144).
T1 sequence: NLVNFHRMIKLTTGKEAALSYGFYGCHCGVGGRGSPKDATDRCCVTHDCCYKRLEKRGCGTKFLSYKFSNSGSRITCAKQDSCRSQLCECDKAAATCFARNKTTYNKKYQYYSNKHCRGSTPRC
In words: filter; monophasic; TBSC, 37 C. Conditions: tags: supplied by Eli Lilly. The method, then: (§1) The nitrocellulose filter partitioning method was used as described in SELEX Patent Applications to determine the affinity of RNA ligands for sPLA_2 and for other promins. Filter discs (nitrocellulose/cellulose acetate mixed matrix, 0.45 µm pore size, Millipore) were placed on a vacuum manifold and washed with 5 ml of TBSC buffer under vacuum. Reaction mixtures, containing ^32P labeled RNA pools and sPLA_2, were incubated in TBSC for 5 minutes at 37° C., filtered, and then immediately washed with 5 ml TBSC. The filters were air-dried and counted in a Beckman liquid scintillation counter without fluor.
(§2) The dissociation constants for representative members of families I–VI, orphan and other ligands were determined by nitrocellulose filter binding experiments and are listed in Table III. Unlike random RNA, all tested ligands from the 2'OH SELEXes bound biphasically.

Series [2] concerns the target T1, secretory phospholipase A2 (sPLA2). In words: filter; biphasic, Kd2 110 nM, mole fraction 0.40; TBSC, 37 C. To be noted: tags: supplied by Eli Lilly. The procedure: as §1, §2
Series [3] shares this target. Nature of the series: filter; biphasic, Kd2 530 nM, mole fraction 0.40; TBSC, 37 C. To be noted: tags: supplied by Eli Lilly. The method, then:
as §1, §2

For series [4] the target is unchanged. Nature of the series: filter; biphasic, Kd2 52 nM, mole fraction 0.35; TBSC, 37 C. Conditions: tags: supplied by Eli Lilly. The method, then:
as §1, §2

Series [5] shares this target. Nature of the series: filter; biphasic, Kd2 130 nM, mole fraction 0.40; TBSC, 37 C. To be noted: tags: supplied by Eli Lilly. The method, then:
as §1, §2

Series [6] has the same target. In words: filter; like random pool; TBSC, 37 C. To be noted: tags: supplied by Eli Lilly. The procedure: as §1, §2
Series [7] shares this target. Nature of the series: filter; TBSC, 37 C. To be noted: tags: supplied by Eli Lilly. The method, then: as §1, §2
Series [8] has the same target. Nature of the series: filter; biphasic, Kd2 82 nM, mole fraction 0.60; TBSC with 5 mM CaCl2, 37 C. Conditions: tags: supplied by Eli Lilly. The method, then:
as §1, §2

Series [9] has as its target basic fibroblast growth factor (bFGF) (Homo sapiens, UniProt P09038 P09038:143-288). Nature of the series: filter; specificity control, like random RNA; TBSC. The procedure:
(§3) The affinity of sPLA_2 ligands 2, 72, 80, 87, NN19 and NN19.15 (SEQ ID NOs.:11, 20, 53, 54, 64, and 117, respectively) for proteins other than sPLA_2 was determined by nitrocellulose partitioning (Tables IV and V). Like sPLA_2, hen egg white lysozyme, bFGF and elastase are small, highly cationic proteins. Bovine pancreatic PLA_2 is an evolutionarily and structurally related enzyme. […] Specificity is particularly well illustrated by the affinities for bovine pancreatic PLA_2 which is 10^4-fold less than that for human sPLA_2.
(§4) *Standard binding experiments were performed to the specified target protein in TBSC and K_d's is calculated by curve fitting. The ligands bind no better than randomized RNA (30N1) to lysozyme (hen egg-white), human basic fibroblast growth factor basic (bFGF) and bovine pancreatic PLA₂. The sPLA₂ K_d that of the high affinity species.

Series [10] deals with pancreatic phospholipase A2 (bpPLA2) (Bos taurus, UniProt P00593 P00593:23-145). Nature of the series: filter; specificity control, like random RNA; TBSC. The method, then:
as §3, §4

The next series addresses lysozyme (egg white) (Gallus gallus, UniProt P00698 P00698:19-147). Nature of the series: filter; specificity control, like random RNA; TBSC. Conditions: tags: 6x crystallized. The procedure: as §3, §4
Series [11] addresses T1, secretory phospholipase A2 (sPLA2). Nature of the series: filter; biphasic, Kd2 180 nM, mole fraction 0.45; TBSC, 37 C. To be noted: tags: supplied by Eli Lilly. The procedure: as §1, §2
The target is the same in series [12]. In words: filter; biphasic, Kd2 740 nM, mole fraction 0.55; TBSC, 37 C. To be noted: tags: supplied by Eli Lilly. The procedure: as §1, §2
Series [13] has the same target. In words: filter; biphasic, Kd2 170 nM, mole fraction 0.15; Table III prints SEQ 104, name matches SEQ 105; TBSC, 37 C. To be noted: tags: supplied by Eli Lilly. The procedure:
as §1, §2

For series [14] the target is unchanged. Nature of the series: filter; biphasic, Kd2 360 nM, mole fraction 0.40; TBSC, 37 C. To be noted: tags: supplied by Eli Lilly. The procedure:
as §1, §2

For series [15] the target is unchanged. Nature of the series: filter; biphasic, Kd2 300 nM, mole fraction 0.55; TBSC, 37 C. To be noted: tags: supplied by Eli Lilly. The method, then: as §1, §2
The mark [16] stands for this setting: hairpin with asymmetric internal loop.

Where a chain is given by its changes, count along the chain named.

The values that follow come from US5622828, “High-affinity oligonucleotide ligands to secretory phospholipase A2 (sPLA2)” (Nexstar Pharmaceuticals, Inc.).

Sequence of lysozyme (egg white) (P00698 19-147, one chain of several): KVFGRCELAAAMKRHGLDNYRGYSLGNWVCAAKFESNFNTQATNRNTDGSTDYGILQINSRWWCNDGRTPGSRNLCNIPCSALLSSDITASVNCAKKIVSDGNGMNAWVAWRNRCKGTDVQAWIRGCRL
Sequence of pancreatic phospholipase A2 (bpPLA2) (P00593 23-145, one chain of several): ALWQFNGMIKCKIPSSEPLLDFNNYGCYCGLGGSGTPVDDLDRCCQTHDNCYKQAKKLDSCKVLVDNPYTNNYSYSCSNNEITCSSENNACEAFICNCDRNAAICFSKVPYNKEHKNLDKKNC
Sequence of basic fibroblast growth factor (bFGF) (P09038 143-288, one chain of several): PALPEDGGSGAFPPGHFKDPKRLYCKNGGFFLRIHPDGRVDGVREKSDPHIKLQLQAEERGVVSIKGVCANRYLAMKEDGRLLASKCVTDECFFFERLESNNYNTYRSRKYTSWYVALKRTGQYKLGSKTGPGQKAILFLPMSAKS

B1: NN11 (ssRNA)
RNA: GGGAAAAGCGAAUCAUACACAAGACCGGCCGGGGAAACCCGAGGUCCGAGGUAACGCAUGGCGCCUCACCGAGUCGCUCCGCCAGAGACCAACCGAGAA
modifications: 2'-NH2 all C and U
As to B1, the Kd (usually a measure of binding affinity in units of concentration) in series [1] (setting [16]) came to 2.8 nM.

B2: NN16 (ssRNA)
RNA: B1 RNA with G44A
modifications: 2'-NH2 all C and U
B2 showed a Kd in series [1] (setting [16]) of 0.9 nM.

B3: 11t (ssRNA)
RNA: GGGAGCUCAGAAUAAACGCUCAACUUACGGGUAAAGCCGAGAAAAUGUAUUGCUUCGACAUGAGGCCCGGAUCCGGC
For B3, the Kd in [2] worked out at 0.6 nM.

B4: 11tF (ssRNA)
RNA: B3 RNA
modifications: 2'-F all C and U
Turning to B4, the Kd in [1] is 7 nM. This counts as single-digit nanomolar.

B5: 73t (ssRNA)
RNA: GGGAGCUCAGAAUAAACGCUCAACUUACAGUUCGGCUGAGAGAAGACGCAUACUUCGACAUGAGGCCCGGAUCCGGC
In the case of B5, the affinity in series [3], expressed as Kd, was 2.4 nM.

B6: 73tF (ssRNA)
RNA: B5 RNA
modifications: 2'-F all C and U
Molecule B6 yielded a Kd in series [1] of 14 nM. In other words, the double-digit nanomolar range.

B7: 86tF (ssRNA)
RNA: GGGAGCUCAGAAUAAACGCUCAACGCCUCAUGCCAAUGCGGGAGGGUGGGUGGUUCGACAUGAGGCCCGGAUCCGGC
modifications: 2'-F all C and U
For the molecule B7, the Kd in series [1] was 12 nM.

B8: 72F (ssRNA)
RNA: GGGAGCUCAGAAUAAACGCUCAAGACCUCUGCUUACAGCCCGGCUGAGACACUUCGACAUGAGGCCCGGAUCCGGC
modifications: 2'-F all C and U
For B8, in series [1], the dissociation constant Kd was found to be 5.6 nM. This Kd is about 2.1-fold lower than that of the molecule before.

B9: 79 (ssRNA)
RNA: B8 RNA with C40U
As for B9, the equilibrium dissociation constant (Kd) in series [4] came out at 1.7 nM.

B10: 96 (ssRNA)
RNA: B8 RNA with C39U, C40U
On to B10, for which, in [5], the Kd was found to be 0.9 nM.

B11: NN10 (ssRNA)
RNA: GGGAAAAGCGAAUCAUACACAAGACCGGCCGGCGCCAUAGCCGAGAUCCGAGGUUGUACGAUGACAACUCAGUGCUCCGCCAGAGACCAACCGAGAA
modifications: 2'-NH2 all C and U
Take B11: the Kd in series [1] (setting [16]) was found to be 0.4 nM.

B12: NN39 (ssRNA)
RNA: GGGAAAAGCGAAUCAUACACAAGACUGGUUGUGCGGACCCAGUGAGUGGGAGGACGUGAGGGUGGCAGCUGGGCUCCGCCAGAGACCAACCGAGAA
modifications: 2'-NH2 all C and U
Consider B12, for which the Kd in [6] was 52 nM. In other words, the double-digit nanomolar range.

B13: NS49 (ssRNA)
RNA: GGGAGGACGAUGCGGAUAAGGAUAAGAUCGAACGAGAGUGAACAAAGUUAAAUACAGUCUGGGGGCAGACGACUCGCCCGA
modifications: 2'-NH2 all C and U
Take B13: in series [7], the Kd was found to be 26 nM.

B14: NN18 (ssRNA)
RNA: GGGAAAAGCGAAUCAUACACAAGAGGAUGGCGGCAAGGCGCGAAAGGGAGGAUCGAGGAGGAAUCGCGUCAGGAGCUCCGCCAGAGACCAACCGAGAA
modifications: 2'-NH2 all C and U
As for B14, in series [6], the Kd is 71 nM.

B15: 71 (ssRNA)
RNA: GGGAGCUCAGAAUAAACGCUCAAUCUCAUGCUCGUCGCACGGCGUAACCUAUUUCGACAUGAGGCCCGGAUCCGGC
Take B15: the Kd in series [8] stood at 1.3 nM.

B16: NS48 (ssRNA)
RNA: GGGAGGACGAUGCGGGCUAAGGGAAGACAAUGAGAUAGCAGACAAUCAACUACACCCAUGUGCGUCAGACGACUCGCCCGA
modifications: 2'-NH2 all C and U
For the molecule B16, in series [7], the Kd came out at 42 nM.

B17: NN5 (ssRNA)
RNA: GGGAAAAGCGAAUCAUACACAAGACCGGCCCCGCCAAUCAAGGGAGAUCCGAGGAAUUGGAAUGUUUGUGAGUGAGCUCCGCCAGAGACCAACCGAGAA
modifications: 2'-NH2 all C and U
In turn, B17 gave a Kd in [1] (setting [16]) of 4.6 nM.

B18: 2 (ssRNA)
RNA: GGGAGCUCAGAAUAAACGCUCAAUCUCAUUGCUCGUCGCACGGCGUAACCUAUUUCGACAUGAGGCCCGGAUCCGGC
As for B18, the Kd in series [9] amounted to 230 nM; in series [10], 20000 nM; with lysozyme (egg white) it was 1700 nM; in series [11] it was 1.7 nM.

Take GGUCUCAUUGCUCGUCGCACGGCGUAACCUAUUUCGACAUGAG (ssRNA) [2.3]: in [12], the Kd came out at 2.6 nM.

B19: NS18 (ssRNA)
RNA: GGGAGGACGAUGCGGAAGUAGAUGAUGGAUUGAGAUGUAAGUGUCAGUAUGAAGAGUCUCUGGGCCAGACGACUCGCCCGA
modifications: 2'-NH2 all C and U
In turn, B19 had a Kd in series [7] of 52 nM.

On to GGGAAGACCUCUGCUUACAGCCCGGCUGAGACACUUCGACAUGAGGCC (ssRNA) [72.c], for which, in series [13], binding was characterised by a dissociation constant (Kd) of 4.6 nM.

B20: 72t.2c (ssRNA)
RNA: GGGAUAAACGCUCAACUUACAGUUCGGCUGAGACGAAGAUCGACCUUCGACAU
Regarding B20, the affinity in series [14], expressed as Kd, was 5 nM.

B21: NN2 (ssRNA)
RNA: GGGAAAAGCGAAUCAUACACAAGAGACCGGCCAGCCAAGGCGCUGAGAUCCGAGGUUUCAGAACCCAUCGGGUUGGCUCCGCCAGAGACCAACCGAGAA
modifications: 2'-NH2 all C and U
In turn, B21 registered a Kd in [1] (setting [16]) of 1.2 nM.

B22: NN29 (ssRNA)
RNA: GGGAAAAGCGAAUCAUACACAAGACCGGCCCGGUGUGUAGCCGGAGAUCCGAGACUUGCUGAACGAGGUGCCACGGCUCCGCCAGAGACCAACCGAGAA
modifications: 2'-NH2 all C and U
For B22, the affinity in series [1] (setting [16]), expressed as Kd, was 2.5 nM. This Kd lies about 2.1-fold higher than the previous one.

B23: NN41 (ssRNA)
RNA: B22 RNA with U38C, G65A
modifications: 2'-NH2 all C and U
On to B23, for which the Kd in [1] (setting [16]) was 1.2 nM.

B24: 4 (ssRNA)
RNA: GGGAGCUCAGAAUAAACGCUCAAUGUCUUACGGGUAAAGCCGAGAAAGUUUCCUUCGACAUGAGGCCCGGAUCCGGC
In turn, B24 gave a Kd in series [15] of 0.7 nM.

B25: NS39 (ssRNA)
RNA: GGGAGGACGAUGCGGGUAGGGAUGAAGUGCGAUGUGAAUCCGGGUGCUAGCGAUGAUGUGUGCCCCAGACGACUCGCCCGA
modifications: 2'-NH2 all C and U
In series [7], B25 yielded a Kd of 16 nM.
